Laboratory results taken from the nanobody polyreactivity screen of Harvey et al. (2022).

Test: yeast display, Sf9 membrane polyspecificity reagent, FACS + sequencing; frameworks hold sequencing errors
How it was run: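 Nanobodies came from a synthetic yeast display library in Saccharomyces cerevisiae BJ5465, induced with galactose for 36–48 hours and stained for 1 hour at 4 °C with 10% biotinylated, detergent-solubilized Sf9 membrane reagent. Cells were enriched on streptavidin microbeads and then FACS-sorted, with low and high (top ~1%) gates set on anti-HA fluorescence for expression and streptavidin fluorescence for reagent binding. Each polyreactivity label reflects the gate a clone came from. Genes were amplified by colony PCR, sequenced by MiSeq 2 × 250 and filtered by CDR length.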

For “QVQLVESGGGLVQAGGSLRLSCAASGSIFESNAMGWYRQAPGKERELVADITYRGTRTYYADSVKGRFTISRDNAKNTVYLQMNSLKPEDTAVYYCAVWQDHYDWGQGTQVTVSS”, which “polyreactivity (PSR sort gate)” value is on record?
Its value is “low polyreactivity”.

With “QVQLVESGGGLVQAGGSLRLSCAASGFIFSYAMGWYRQAPGKERELVAAISKSGGRTYYADSVKGRFTISRDNAKNTVYLQMNSLKPEDTAVYYCAVRDLHLSIARYNYWGQGTQVTVSS” as the sequence, how does the “polyreactivity (PSR sort gate)” value read?
The value was “high polyreactivity”.

Which “polyreactivity (PSR sort gate)” value does the source give for “QVQLVESGGGLVQAGGSLRLSCAASGSTFRGYAMGRYRQAPGKERELVAAITRNGGSTYYADSVKGRFTISRDNAKNTVYLQMNSLKPEDTAVFYCAAAKRRTVGVKYTFDYWGQGTQVTVSS” here?
Its value is “high polyreactivity”.

With “QVQLVESGGGLVQAGGSLRLSCAASGNTFTFNAMGWYRQAPGKERELVAAINRGDSTNYADSVKGRFTISRDNAKNTVYLQMNSLKPEDTAVYYCAAGTLYWNYNRYDLYYYWGQGTQVTVSS” as the sequence, how does the “polyreactivity (PSR sort gate)” value read?
Its value is “high polyreactivity”.

For “QVQLVESGGGLVQAGGSLRLSCAASGFTITKYAMGWYRQAPGKERALVAAISRSAGSTYYADSVKGRFTISRDNAKHTVYLQMNSLKPEDTAVYYCNAYPKGRYAAAFPGMDYWGQGTQVTVSS”, which “polyreactivity (PSR sort gate)” value is on record?
Its value is “high polyreactivity”.

For “QVQLVESGGGLVQAGGSLRLSCAASGLIFVYNSMGWYRQAPGKERELVAGITSGGSTNYADSVKGRFTISRDNAKNTVYLQMNSLKPEDTAVYYCAAGYYDLYLWWGYDYWGQGTQVTVSS”, which “polyreactivity (PSR sort gate)” value is on record?
The value was “high polyreactivity”.

Which “polyreactivity (PSR sort gate)” value does the source give for “QVQLVESGRGLVQAGGSLRLSCAASGFTFYRYAMGWYRQAPGKERELVAAISWSGGSTYYADSVKGRFTISRDNAKNTVYLQMNSLKPEDTAVYYCAANRRFVGTGSTYYYWGQGTHVTVSS” here?
The value was “high polyreactivity”.

For “QVQLVESGGGLVQAGGSLRLSCAASGRTIRYYVMGWYRQAPGKERELVAAISSGGRTNYADSVKGRFTISRDNAKNTVYLQMNSLKPEDTAVYYCAADLWYYWTATRAFDYWGQGTQVTVSS”, which “polyreactivity (PSR sort gate)” value is on record?
Its value is “high polyreactivity”.

For “QVQLVESGGGLVQAGGSLRLSCAASGSIFNINAMGWYRQAPGKEREFVAAIDYSDSTYYADSVKGRFTISRDNAKNTVYLQMNSLKPEDTAVYYCAADVWKDGYWGDYWGQGTQVNVSS”, which “polyreactivity (PSR sort gate)” value is on record?
Its value is “high polyreactivity”.

With “QVQLVESGGGLVQAGGSLRLSCAASGSTFARYAMGWYRQAPGKERELVAGISTSGGRTYYADSVKGRFTISRDNAKNTVYLQMNSLKPEDTAVYYCAKALSQTWYDGQYGYWGQGTQVTVSS” as the sequence, how does the “polyreactivity (PSR sort gate)” value read?
Its value is “low polyreactivity”.

Which “polyreactivity (PSR sort gate)” value does the source give for “QVQLVESGGGLVQAGGSLRLSCAASGFIFYKNAMGLYRQAPGKERELVAAISRRGSSTYYADSVKGRFTISRDNAKNTVYLQMNSLKPEDTAVYYCAARFTRRDYWGQGTQVTVSS” here?
Its value is “high polyreactivity”.

With “QVQLVESGGGLVQAGGSLRLSCAASGSIFGTNAMGWYRQAPGKERELVAAIDGGSTTYYADSVKGRFTISRDNAKNTVYLQMNSLKPEDTAVYYCAADGTRYLNYEGYAGYEYWGQGTQGTVSS” as the sequence, how does the “polyreactivity (PSR sort gate)” value read?
The value was “low polyreactivity”.

For “QVQLVESGGGLVQAGGSLRLSCAASGLIFPANAMGWYRPAPGKERELVAAISWRGSSTYYADSVKGRFTISRDNAKNTVYLQMNSLKPEDTAVYYCNVYVRSGSLRDIGYKYDYWGQGTQVTVSS”, which “polyreactivity (PSR sort gate)” value is on record?
The value was “high polyreactivity”.

Which “polyreactivity (PSR sort gate)” value does the source give for “QVQLVESGGGLVQAGGSLRLSCAASGFTFYSYDMGWYRQAPGKERELVAAITWSGGSTYYADSVKGRFTISRDNAKNTVYLQMNSLKPEDTAVYYCAAELFPLQHFWVAYATRRYDYWGQGTQVTVSS” here?
Its value is “low polyreactivity”.

For “QVQRVESGGGLVQAGGSLRLSCAASGFIFDGYAMGWYRQAPGKERELVAAIDSGGDRTYYADSVKGRFTISRDNAKNTVYLLMNSLKPEDTAVYYCAADSSDPTGYEYGGQGTQVTVSS”, which “polyreactivity (PSR sort gate)” value is on record?
The value was “low polyreactivity”.

Which “polyreactivity (PSR sort gate)” value does the source give for “QVQLVESGGGLVQAGGSLRLSCAASGRIFHYNAMGWYRQAPGKERELVAAISTGGSTNYADSVKGRFTISRDNAKNTFYLQMYSLKPEDTAVYYCAADHPVTYPTSKFDFWGQGTQVTVSS” here?
Its value is “low polyreactivity”.

With “QFQLVESGGGLVQARGSLRLSCAASGITFPVYAMGWYRQAPGKEREFVASIRFSTGRTYYADSVKGRFTISRDNAKNTVYLQINSLKPEDTAVYYCRGSTQSPYNSWGQGTQVTVSS” as the sequence, how does the “polyreactivity (PSR sort gate)” value read?
The value was “high polyreactivity”.

For “QVQLVESGGGLVQAGGSLRLSCAASGSILLVYAMGWYRPAPGKERELVAAIRWSGGSTYYADSVKGRFTISRDNAKNTVYLQMNSLKPEDTAVYYCNAGESYSVKGGPYDSDYWGQGTQVTVSS”, which “polyreactivity (PSR sort gate)” value is on record?
The value was “low polyreactivity”.

Which “polyreactivity (PSR sort gate)” value does the source give for “QVQLVESGGGLVQAGGSLRLSCAASGFTFGPYAMGWYRQAPGKERELVAAIRSGGSTNYADSVKGRFTISRDNAKNTVYLQMNSLKPEDTAVYYCAAGYRRGWVTMGYWGQGTQVTVSS” here?
Its value is “high polyreactivity”.

Which “polyreactivity (PSR sort gate)” value does the source give for “QVQLEESGGGFVQAGGRLRLSCAASGSIFQAYFMGWYRQAPGKERELVADISRSGGRTYYADSVKGRFTISRDNAKNTVYLQMNSLKPEDTGVYYCAADWRHLLYRGGLQYEYWGQGTQVTVSS” here?
The value was “high polyreactivity”.

With “QVQLVESGGGLVQAGGSLRLSCAASGSTFGVYAMGWYRQAPGKERELVAAISGSGGSTYYADSVKGRFTISRDNAKNTVYLQMNSLKPEDTAVYYCAAKVRHYYSASNYYYWGQGTQVTVSS” as the sequence, how does the “polyreactivity (PSR sort gate)” value read?
The value was “high polyreactivity”.

With “QVQLVESVGGLVQAGGSLRLSCAASGRTFSVYTMGWYRQAPGKERELVASINWSGGRTYYADSVKGRFTISRDNAKNTVYLQMNSLKPEDTAVYYCAATGWRTLYDYWGQGTLVTVSS” as the sequence, how does the “polyreactivity (PSR sort gate)” value read?
The value was “high polyreactivity”.

With “QVQLVESGGGLVQAGGSLRLSCAASGFIFATNAMGWYRQAPGKERELVAAISRSGGSTYYADSVKGRFTISRDNAKNTVYLQMYSLKPEDTAVYYCATPRYRYYTIYDYGYWGQGTQVNVSS” as the sequence, how does the “polyreactivity (PSR sort gate)” value read?
Its value is “high polyreactivity”.

With “QVQLVESGGGLVQAGGSLRLSCASSGLTFELYAMGWYRQAPGKERELVAAITWSGGRTYYADSVKGRFTISRDNAKNTVYLQMNSLKPEDTAVYYCAADVYPGYVGSQEYDYWGQGTQVTVSS” as the sequence, how does the “polyreactivity (PSR sort gate)” value read?
The value was “low polyreactivity”.

With “QVQLVESGGGLVQAVGSLRLSCAASGGIITSSAMGWYRLAPGKEWELVAAITGIGGRTYYADSVKGRFTISRDNAKNTVYLQMNSLKPEDTAVYYCKAAYTYVTAWYYYCGQGTQVTVSS” as the sequence, how does the “polyreactivity (PSR sort gate)” value read?
Its value is “high polyreactivity”.

Which “polyreactivity (PSR sort gate)” value does the source give for “QVQLEESGGGLVQAGGRLRLSCAASGRIYTKYAMGWYRQAPGKERELVAAISGSGGNTYYADSVKGRFTISRDNAKNTVYLQMNSLKPEDTAVYYCNRAKNAYLMDYWGQGTQVTVSS” here?
Its value is “high polyreactivity”.

For “QVQLVESCGGLVPAGGSLRLSCAASGSTFRYAMGWYRQTPGKERELVDAITRSGGSTYYAYSVKVRFTISRDKAKNTVYLQMNSLKPEDTAVYYCNARRGKGKSYGDYGYGYWGQGTQVTVSS”, which “polyreactivity (PSR sort gate)” value is on record?
The value was “high polyreactivity”.

With “QVQLVESGGGLVQAGGSLRLSCAASGSIFWSNAMGWYRQAPGKERELVAAITWSGGSTYADSVKGRFTISRDNAKNTVYLQMNSLKPEDTAVYYCATDYPWAWFESDYWGQGTQVTVSS” as the sequence, how does the “polyreactivity (PSR sort gate)” value read?
Its value is “low polyreactivity”.

For “QVQLVESGGGLVQAGGSLRLSCAASGIIFDDYAMGWYRQAPGKERELVAAISVSGGSTYNADSVKGRFTISRDNAKNTVYLQMNSLKPEDTAVYYCAARLIVGRFLRYDYWGQGTQVTVSS”, which “polyreactivity (PSR sort gate)” value is on record?
Its value is “high polyreactivity”.

For “QVQLVESGGGLVQAGGSLRLSCAASGRIFGYNAMGWYRPAPGKEREVVAAISWNGGSTYYADSVKGRFTISRDNAKNTVYLQMNSLKPEDTAVYYCNADPSDRRYPHTWTKMGYWGQGTQVTVSS”, which “polyreactivity (PSR sort gate)” value is on record?
Its value is “low polyreactivity”.

With “QVQLVESGGGLVQAGGSLRLSCAASGGIFVRNAMLWYRQAPGKERELVAAISDTGGSTYYADSVKGRFTISRDNAKNTVYLQMNSLKPEDTAVYYCAADLSPEADDYDVGGWRFRYDYWGQGTQVTVSS” as the sequence, how does the “polyreactivity (PSR sort gate)” value read?
The value was “low polyreactivity”.

With “QVQLVESGGGLVQAGGSLRLSCAASGRIFYYNPMGWYRQAPAKERELVAAISWDGGSTYYADSVKGRFTISRDNAKNTFYLEMNCLKAEDTAVYYCAVDLYGTWYPTWFNYWGQGTQVTVSS” as the sequence, how does the “polyreactivity (PSR sort gate)” value read?
Its value is “low polyreactivity”.

With “QVHLVESGGGLVQAGCSLRLSCAASGFTFYDYAMGWYRQAPGKERELVAGISRGDSTYYADSVKGRFTISRDNAKNTVYLQKNSLKPEDTSVYYCAADARSYDALDYSDLLYDYWGHGTQVTVSS” as the sequence, how does the “polyreactivity (PSR sort gate)” value read?
Its value is “low polyreactivity”.

Which “polyreactivity (PSR sort gate)” value does the source give for “QVQLVESGGGLVQAGGSLRLSCAASGRTFDYNAIGWYRQAPGKERDFVAAISGRGGSTYYADSVKARFTISRDNAKNRVYLQMYSLKPEDTAVYYCAADLRFRYSGRYDYWGQGTQVTVSS” here?
Its value is “high polyreactivity”.

With “QVQLVESGGGLVQAGGSLRLSCADSGFIFYFYTKGCYIQSPGKDRELVSGITWLDGSTYYADSVKGRFTISRDNAKNTVYLQMNSLKPEDTAVYYCNRDQWPWESGYAYNYWGQGTQVTVSS” as the sequence, how does the “polyreactivity (PSR sort gate)” value read?
The value was “low polyreactivity”.

Which “polyreactivity (PSR sort gate)” value does the source give for “QVQLVESGGGLVQAGGSLRLSCAASGSIFDWYAMGWYRQAPGKERELGAAITNSGGRTYYADSVKGRFTISRDTAKNTVYLQMNSLKPEDTAVYYCNASVFRLRKMYYWGQGTPVTVSS” here?
Its value is “high polyreactivity”.

With “QVQLVESGGGLVQAGGSLRLSCAASGSIFWYYAMGWYRQAPGKERELVAGITRGGSTSYADSVKGRFTISRDNAKKTVYLQMNSLKPEDTAVYYCAKRNPYSRYGYWGQGTQVTVSS” as the sequence, how does the “polyreactivity (PSR sort gate)” value read?
The value was “high polyreactivity”.

For “QVQLQESGGGLVQAGGTLRLSCQASGSIFVSVTMGWYRQAPGKERELVASIGRGSTTNHADSVKGRFTISRDNAKNIVYLLMNSLKPEDTAVYYCAALESYGKYHGYWGQGTQVTVSS”, which “polyreactivity (PSR sort gate)” value is on record?
The value was “low polyreactivity”.

With “LVQLVQSGGGLVQAGGSLRLSCAASGRTFIGYAMGWYRQAPGKERELVAAITSDGGTNYADSVKGRFTISRDNAKNTVNLLMNSLKPEDTAVYDCAARRRVSYHLYGYWGQGTQVTVSS” as the sequence, how does the “polyreactivity (PSR sort gate)” value read?
Its value is “high polyreactivity”.

For “KYYADSVKGRFTISRDNAKNTVYLQMNSLNPEDTAVYYCNAGYYISFNPYDYWGQGTQVTVSW”, which “polyreactivity (PSR sort gate)” value is on record?
Its value is “low polyreactivity”.

With “QVQHVESGGGLVQAGGSLRLSCAASGRTFTPYAMGWYRQAPGKEREFVAAISIVGRTKYADSVKGRFTISRDNAKNTVYLQMNSLKPEDTAVYYCNAQDSRDRKFYWGYTRGHWGQGTQVTVSS” as the sequence, how does the “polyreactivity (PSR sort gate)” value read?
The value was “low polyreactivity”.
